For ten variants, response (normalized β-gal units) results are on record in article PMC11746154.

The labels stand for the following.
B1: LexA-Rec102 [S. cerevisiae] / Gal4AD-Spo11 [S. cerevisiae] (parent)
chain 1: MALEGLRKKYKTRQELVKALTPKRRSIHLNSNGHSNGTPCSNADVLAHIKHFLSLAANSLEQHQQPISIVFQNKKKKGDTSSPDIHTTLDFPLNGPHLCTHQFKLKRCAILLNLLKVVMEKLPLGKNTTVRDIFYSNVELFQRQANVVQWLDVIRFNFKLSPRKSLNIIPAQKGLVYSPFPIDIYDNILTCENEPKMQKQTIFPGKPCLIPFFQDDAVIKLGTTSMCNIVIVEKEAVFTKLVNNYHKLSTNTMLITGKGFPDFLTRLFLKKLEQYCSKLISDCSIFTDADPYGISIALNYTHSNERNAYICTMANYKGIRITQVLAQNNEVHNKSIQLLSLNQRDYSLAKNLIASLTANSWDIATSPLKNVIIECQREIFFQKKAEMNEIDARIFEYK
chain 2: MARDITFLTVFLESCGAVNNDEAGKLLSAWTSTVRIEGPESTDSNSLYIPLLPPGMLKIKLNFKMNDRLVTEEQELFTKLREIVGSSIRFWEEQLFYQVQDVSTIENHVILSLKCTILTDAQISTFISKPRELHTHAKGYPEIYYLSELSTTVNFFSKEGNYVEISQVIPHFNEYFSSLIVSQLEFEYPMVFSMISRLRLKWQQSSLAPISYALTSNSVLLPIMLNMIAQDKSSTTAYQILCRRRGPPIQNFQIFSLPAVTYNK

In the first test the parent is B1. Kind of test: Y2H quantitative β-galactosidase assay. The conditions noted are these: with Gal4AD-Spo11 [S. cerevisiae]; parent: 1; read off a plot.
On to chain 2 MARDITFLTVFLESCGAVNNDEAGKLLSAWTSTVRIEGPESTDSNSLYIPLLPPGMLKIKLNFKMNDRLVTEEQELFTKLREIVGSSIRFWEEQLFYQVQDVSTIENHVILSLKCTILTDAQISTFISKPRELHTHAKGYPEIYYLSELSTTVNFFSKEGNYVEISQVIPHFNEYFSSLIVSQLEFEYPMVFSMISRARLKWQQSSLAPISYALTSNSVLLPIMLNMIAQDKSSTTAYQILCRRRGPPIQNFQIFSLPAVTYNK [chain 2 L198A], for which the response (normalized β-gal units) was determined as 0.15.
On the same count and under the same terms, the value for chain 2 MARDITFLTVFLESCGAVNNDEAGKLLSAWTSTVRIEGPESTDSNSLYIPLLPPGMLKIKLNFKMNDRLVTEEQELFTKLREIVGSSIRFWEEQLFYQVQDVSTIENHVILSLKCTILTDAQISTFISKPRELHTHAKGYPEIYYLSELSTTVNFFSKEGNYVEISQVIPHFNEYFSSLIVSQLEFEYPMVFSMISRLRLKWQQSSAAPISYALTSNSVLLPIMLNMIAQDKSSTTAYQILCRRRGPPIQNFQIFSLPAVTYNK [chain 2 L207A] was 2.
Regarding chain 2 MARDITFLTVFLESCGAVNNDEAGKLLSAWTSTVRIEGPESTDSNSLYIPLLPPGMLKIKLNFKMNDRLVTEEQELFTKLREIVGSSIRFWEEQLFYQVQDVSTIENHVILSLKCTILTDAQISTFISKPRELHTHAKGYPEIYYLSELSTTVNFFSKEGNYVEISQVIPHFNEYFSSLIVSQLEFEYPMVFSMISRLRLKWQQSSLAPISYALTSNSVLLPIMLNMIAQDKSSTTAYQILCRRRGPPAQNFQIFSLPAVTYNK [chain 2 I249A], the response (normalized β-gal units) was determined as 0.9.
Same read-out and setting: with chain 2 MARDITFLTVFLESCGAVNNDEAGKLLSAWTSTVRIEGPESTDSNSLYIPLLPPGMLKIKLNFKMNDRLVTEEQELFTKLREIVGSSIRFWEEQLFYQVQDVSTIENHVILSLKCTILTDAQISTFISKPRELHTHAKGYPEIYYLSELSTTVNFFSKEGNYVEISQVIPHFNEYFSSLIVSQLEFEYPMVFSMISRLRLKAQQSSLAPISYALTSNSVLLPIMLNMIAQDKSSTTAYQILCRRRGPPIQNFQIFSLPAVTYNK [chain 2 W202A] the figure was 0.1.
In the case of chain 2 MARDITFLTVFLESCGAVNNDEAGKLLSAWTSTVRIEGPESTDSNSLYIPLLPPGMLKIKLNFKMNDRLVTEEQELFTKLREIVGSSIRFWEEQLFYQVQDVSTIENHVILSLKCTILTDAQISTFISKPRELHTHAKGYPEIYYLSELSTTVNFFSKEGNYVEISQVIPHFNEYFSSLIVSQLEFEYPMVFSMISRLRLKWQQSSLAPISYALTSNSVLLPIMLNMIAQDKASTTAYQILCRRRGPPIQNFQIFSLPAVTYNK [chain 2 S233A], the response (normalized β-gal units) worked out at 0.12.
The same measure, in the same setting: with chain 2 MARDITFLTVFLESCGAVNNDEAGKLLSAWTSTVRIEGPESTDSNSLYIPLLPPGMLKIKLNFKMNDRLVTEEQELFTKLREIVGSSIRFWEEQLFYQVQDVSTIENHVILSLKCTILTDAQISTFISKPRELHTHAKGYPEIYYLSELSTTVNFFSKEGNYVEISQVIPHFNEYFSSLIVSQLEFEYPMVFSMISRLRLKWQQSSLAPISYALTSNSVLLPIMLNMIAQDKSSTTAYAILCRRRGPPIQNFQIFSLPAVTYNK [chain 2 Q239A] the figure was 0.27.

Still in this test, the particulars now being: with LexA-Rec102 [S. cerevisiae]; parent: 1; read off a plot.
On to chain 1 MALEGLRKKYKTRQELVKALTPKRRSIHLNSNGHSNGTPCSNADVLAHIKHFLSLAANSLEQHQQPISIVFQNKKKKGDTSSPDIHTTLDFPLNAPHLCTHQFKLKRCAILLNLLKVVMEKLPLGKNTTVRDIFYSNVELFQRQANVVQWLDVIRFNFKLSPRKSLNIIPAQKGLVYSPFPIDIYDNILTCENEPKMQKQTIFPGKPCLIPFFQDDAVIKLGTTSMCNIVIVEKEAVFTKLVNNYHKLSTNTMLITGKGFPDFLTRLFLKKLEQYCSKLISDCSIFTDADPYGISIALNYTHSNERNAYICTMANYKGIRITQVLAQNNEVHNKSIQLLSLNQRDYSLAKNLIASLTANSWDIATSPLKNVIIECQREIFFQKKAEMNEIDARIFEYK [chain 1 G95A], for which the response (normalized β-gal units) was 0.17.
Take chain 1 MALEGLRKKYKTRQELVKALTPKRRSIHLNSNGHSNGTPCSNADVLAHIKHFLSLAANSLEQHQQPISIVFQNKKKKGDTSSPDIHTTLDFPLNGPHLCTHQAKLKRCAILLNLLKVVMEKLPLGKNTTVRDIFYSNVELFQRQANVVQWLDVIRFNFKLSPRKSLNIIPAQKGLVYSPFPIDIYDNILTCENEPKMQKQTIFPGKPCLIPFFQDDAVIKLGTTSMCNIVIVEKEAVFTKLVNNYHKLSTNTMLITGKGFPDFLTRLFLKKLEQYCSKLISDCSIFTDADPYGISIALNYTHSNERNAYICTMANYKGIRITQVLAQNNEVHNKSIQLLSLNQRDYSLAKNLIASLTANSWDIATSPLKNVIIECQREIFFQKKAEMNEIDARIFEYK [chain 1 F103A]: the response (normalized β-gal units) came out at 0.35.
Same read-out and setting: with chain 1 MAAEGLRKKYKTRQELVKALTPKRRSIHLNSNGHSNGTPCSNADVLAHIKHFLSLAANSLEQHQQPISIVFQNKKKKGDTSSPDIHTTLDFPLNGPHLCTHQFKLKRCAILLNLLKVVMEKLPLGKNTTVRDIFYSNVELFQRQANVVQWLDVIRFNFKLSPRKSLNIIPAQKGLVYSPFPIDIYDNILTCENEPKMQKQTIFPGKPCLIPFFQDDAVIKLGTTSMCNIVIVEKEAVFTKLVNNYHKLSTNTMLITGKGFPDFLTRLFLKKLEQYCSKLISDCSIFTDADPYGISIALNYTHSNERNAYICTMANYKGIRITQVLAQNNEVHNKSIQLLSLNQRDYSLAKNLIASLTANSWDIATSPLKNVIIECQREIFFQKKAEMNEIDARIFEYK [chain 1 L3A] the figure was 0.27.
The same measure, in the same setting: the value for chain 1 MALEGLRKKYKTRQELVKALTPKRRSIHLNSNGHSNGTPCSNADVLAHIKHFLSLAANSLEQHQQPISIVFQNKKKKGDTSSPDIHTTLDAPLNGPHLCTHQFKLKRCAILLNLLKVVMEKLPLGKNTTVRDIFYSNVELFQRQANVVQWLDVIRFNFKLSPRKSLNIIPAQKGLVYSPFPIDIYDNILTCENEPKMQKQTIFPGKPCLIPFFQDDAVIKLGTTSMCNIVIVEKEAVFTKLVNNYHKLSTNTMLITGKGFPDFLTRLFLKKLEQYCSKLISDCSIFTDADPYGISIALNYTHSNERNAYICTMANYKGIRITQVLAQNNEVHNKSIQLLSLNQRDYSLAKNLIASLTANSWDIATSPLKNVIIECQREIFFQKKAEMNEIDARIFEYK [chain 1 F91A] was 0.3.
